In the DeepSol protein solubility set:

Test: soluble on expression in E. coli; label from the status in PepcDB or PDB records
With “MGHHHHHHSHMPKHPSQSTVCQKGTPNSASKTKDKVNKRNERGETRLHRAAIRGDARRIKELISEGADVNVKDFAGWTALHEACNRGYYDVAKQLLAAGAEVNTKGLDDDTPLHDAANNGHYKVVKLLLRYGGNPQQSNRKGETPLKVANSPTMVNLLLGKGTYTSSEESSTESSEE” the “soluble on expression in E. coli” value was “soluble”. In the case of “MGHHHHHHSHMQQAPVVLSTLDKLLNWGRSNSLWPLTYGLACCAIEMMATGGSRFDFDRFGTIFRASPRQSDVMIIAGTLTKKHAEFMRRLYDQMPEPKWVISMGSCANTGGMFNTYATVQGADRVVPVDIYLPGCAPRPETLQYALMVLQDKIRRSKAIKQDAPKRLV”, the “soluble on expression in E. coli” value is reported as “not soluble”. In the case of “MGHHHHHHSHMRGRIYLEPPTMRKKRLLDRKVLLKSDSPTGDVLLDETLKHIKATEPTETVQTWIELLTGETWNPFKLQYQLRNVRERIAKNLVEKGILTTEKQNFLLFDMTTHPVTNTTEKQRLVKKLQDSVLERWVNDPQRMDKRTLALLVLAHSSDVLENVFSSLTDDKYDVAMNRAKDLVELDPEVEGTKPSATEMIWAVLAAFNKS”, the “soluble on expression in E. coli” value is reported as “not soluble”. For “MGHHHHHHSHMRLLKSELGSFITDYFQNQLLAKGLFFVEEKIKLCEGENRIEVLAEVWDHFFTETLPTLQAIFYPVQSVHEPTGPSESYLQLEELVKQVVSPFLGISGDRSFSGPTYTLARRHSRVRPKVTVLNYASPITAVSRPLNEMVLTPLTEQEGEAYLEKCGSVRRHTVANAHSDIQLLAMATMMHSGLGEEASSENKCLLLPPSFPPPHRQCSSEPNITDNPDGLEEGARGSQEGSELNCASLS”, the “soluble on expression in E. coli” value was “not soluble”. In the case of “MGHHHHHHSHMSCTVYAKTQQAKFLTWQFDGEYRGDDYTATLTLGNPDLIGESVIMVAHFLQSLTHRLVLGGELVYHRRPGEEGAILTLAGKYSAVHWVATLNVGSGGAHASYYHRANEQVQVGVEFEANTRLQDTTFSFGYHLTLPQANMVFRGLVDSNWCVGAVLEKKMPPLPVTLALGAFLNHWRNRFHCGFSITVG”, the “soluble on expression in E. coli” value is reported as “not soluble”. For “MGHHHHHHSHMSGGEVVCSGWLRKSPPEKKLKRYAWKRRWFVLRSGRLTGDPDVLEYYKNDHAKKPIRIIDLNLCQQVDAGLTFNKKEFENSYIFDINTIDRIFYLVADSEEEMNKWVRCICDICGFNPTEEDPVK”, the “soluble on expression in E. coli” value was “not soluble”. With “MGHHHHHHSHMSNTDASGEKRVTGTSERREQIIQRLRQQGSVQVNDLSALYGVSTVTIRNDLAFLEKQGIAVRAYGGALICDSTTPSVEPSVEDKSALNTAMKRSVAKAAVELIQPGHRVILDSGTTTFEIARLMRKYTDVIAMTNGMNVANALLEAEGVELLMTGGHLRRQSQSFYGDQAEQSLQNYHFDMLFLGVDAIDLERGVSTHNEDEARLSRRMCEVAERIIVVTDSSKFNRSSLHKIIDTQRIDMIIVDEGIPADSLEGLRKAGVEVILVGDHASSL” the “soluble on expression in E. coli” value was “soluble”. In the case of “MGHHHHHHSHMSQHGQSCLSLAGTIDCSVPDILLKSGVIGLAQWLTPVIPALWETEAGGSLEVRSSRPAWPTWRNPISTKNTKISQTWWRMPVVLATWEAEAGESVNLGGRGCSELRRCRCTPAWATRAKLHLRKNKNKNNGVTKT”, the “soluble on expression in E. coli” value is reported as “not soluble”. With “MGHHHHHHSHMSSYHCAMNNENARLLTFQTWPLTFLSPTDLAKAGFYYIGPGDRVACFACGGKLSNWEPKDNAMSEHLRHFPKCPFIENQLQDTSRYTVSNLSMQTHAARFKTFFNW” the “soluble on expression in E. coli” value was “not soluble”. For “MGHHHHHHSHMTWKGGGGWMAAVTHGPGITWGSLLPSAVRQGEQKCKNTDVYFSKLGGGGVPPDSFQRADCGGPTVYPTPARESLSFGTPGFPELRGKLILHVSIAVVVFLFGPGRAGEGPSRLQEASRVSWTLLCRPQAALQTPVRWDDFRRSQPGTARPSAWEPVQGAVS”, the “soluble on expression in E. coli” value was “soluble”. In the case of “MGHHHHHHSHMVNVKGSTKKSNLDRFLHCITPLVPPQSLPKTEIRTLNRLWHPWERQKVEFFRLSDLWDCYDEWSAYGASVPIHVTNGESLVQYYVPYLSAIQIFTSHSSLIRLREESEDGECEGRDPFSDSGSDESVSEEGLENNTLLHPSDRLGYLYLQYFERSAPYTRVPLMDKINELAQRYPGLMSLRSVDLSPASWMSVAWYPIYHIPMGRTIKDLSTCFLTYHTLSSSFQDMEPEENGGDKERVRREGEDITLLPFGMATYKMQGDVWLSQDHDDQERLASLYSVADSWLKQLRVQHHDFNYFCNMSMTHRG”, the “soluble on expression in E. coli” value is reported as “soluble”.
